T1: lesional elastase activity in psoriasis, contact dermatitis and atopic dermatitis (Homo sapiens, UniProt P08246)
T1 sequence (P08246 30-267): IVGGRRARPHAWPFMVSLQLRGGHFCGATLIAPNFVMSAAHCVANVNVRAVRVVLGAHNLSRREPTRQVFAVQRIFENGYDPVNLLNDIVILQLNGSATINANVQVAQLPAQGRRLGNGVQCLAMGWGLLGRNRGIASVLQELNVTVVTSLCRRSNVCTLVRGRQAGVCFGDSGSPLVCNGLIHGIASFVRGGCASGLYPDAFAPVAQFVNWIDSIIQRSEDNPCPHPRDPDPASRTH

T2: bovine pancreatic trypsin (Bos taurus, UniProt P00760)
T2 construct: purchased Serva; host or cells: bovine pancreas
T2 sequence (P00760 24-246): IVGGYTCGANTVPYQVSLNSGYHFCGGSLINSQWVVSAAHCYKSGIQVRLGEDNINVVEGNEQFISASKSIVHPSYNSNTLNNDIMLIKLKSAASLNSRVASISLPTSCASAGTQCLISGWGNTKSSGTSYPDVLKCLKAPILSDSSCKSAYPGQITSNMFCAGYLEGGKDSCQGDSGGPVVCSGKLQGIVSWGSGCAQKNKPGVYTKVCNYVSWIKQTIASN

T3: papaine (Carica papaya, UniProt P00784)
T3 construct: purchased Sigma
T3 sequence (P00784 134-345): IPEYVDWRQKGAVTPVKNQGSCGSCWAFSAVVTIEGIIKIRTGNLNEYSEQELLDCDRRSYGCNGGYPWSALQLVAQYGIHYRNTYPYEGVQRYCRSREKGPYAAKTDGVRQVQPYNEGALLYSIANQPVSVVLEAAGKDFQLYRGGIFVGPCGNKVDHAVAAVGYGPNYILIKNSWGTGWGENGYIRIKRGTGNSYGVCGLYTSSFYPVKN


What was measured:
[1] = tested on: peri-stomal and peri-anal irritation caused by feces; conditions: applied topically; cited from earlier work
[2] = tested on: therapy-resistant atopic dermatitis; conditions: small study; cited from earlier work
[3] = tested on: supernatant from feces of a patient with an ileum reservoir with a high proteolytic activity, on skin; experiment: Skin test on the fore-arm with fecal supernatant and STI; type: in vivo, human; conditions: 7 h incubation on fore-arm
Experimental: Skin tests were performed on the ventral part of the fore-arm. The following solutions were tested: 1. supernatant from feces of a patient with an ileum reservoir with a high proteolytic activity; 2. the same supernatant, but sterilised; 3. supernatant with 0.25% STI (w/v) and 4. 0.25% STI in buffer. Two hundred μl of each solution were placed on folded cambric on the skin and covered with plastic and adhesion wound pad. Total incubation time was 7 h, but after 3 and 5 h 100 μl buffer was added to each of the test patches to prevent dehydration.
After removing the pads and the cambric the skin was carefully cleaned with tap water and judged immediately and after 1-18 h.

[4] = target: T1, lesional elastase activity in psoriasis, contact dermatitis and atopic dermatitis; conditions: in vitro; Wiedow et al, Dermatol 1992; cited from earlier work
[5] = tested on: proteolytic activity in feces of ileostomy dog / pouch dog; experiment: Inhibition of proteolytic activity in feces of ileostomy and pouch dogs (azocasein); type: biochemical
Experimental: Fecal samples from 20 colectomized dogs, purebred Beagles (Harlan) were collected. Three ileostomy groups were studied. In ten dogs a standard Brooke ileostomy was constructed by subtotal colectomy. In five dogs a valveless ileal reservoir (pouch) was fashioned by a side-to-side iso-antiperistaltic anastomosis. After a recovery period of 2 weeks a schedule of increasing periods of occlusion was started, except for 5 dogs. The maximum tolerable occlusion time was 2.5-3 h for the ileostomy group and 4-7 h for the reservoir group. In five dogs a continent ileostomy (Kock's pouch) was constructed, which was emptied 2-5 times per 24 hours by catheterization.
(§1) Feces was frozen and stored at −20° C. within 3 h of passage. […] Samples of 1 g were transferred to 24 vol of 0.1 M phosphate buffer pH 7.6 and homogenized (‘Stomacher’, Lab blender 400). Coarse particles were removed from the homogenates by gauze filtration (Utermohlen, refolded to 2 layers); these samples are further referred to as ‘fecal homogenates’.
Proteolytic activity was determined in the fecal homogenates in appropriate dilutions (up to 250-fold) in 0.1 M phosphate buffer (pH 7.6). Penicilline (0.1% w/v) was added to prevent bacterial growth. In the more recent inhibition tests no penicillin was used. […] The reaction was stopped by addition of 0.2 ml 10% (w/v) trichloroacetic acid (TCA); after 10 min at room temperature unhydrolysed azocasein, bacteria and other particles were removed by centrifugation at 10,000 rpm during 10 min. Then 0.1 ml of the clear supernatant was transferred to 0.1 ml of 1 N NaOH in flatbottom 24 wells microplates. To the blank assays azocasein was added after incubation an addition of TCA. The absorption of the samples was measured at 450 nm and compared with standard curves obtained from solutions of azocasein. Proteolytic activity was expressed as milligrams azocasein hydrolysed during 1 h per gram dry or wet weight of sample. Each diluted sample was tested for other than enzymatic substrate hydrolysis after heating at 80° C. for 10 min. Spontaneous substrate hydrolysis was tested by incubation of the substrate with buffer.
(§2) In most of the experiments the inhibitor was added to feces (diluted 1:25 in buffer), mixed for 5-15 min and added to the substrate; PJ-powder was added to undiluted feces (1:1) and after mixing, diluted (1:25) with buffer. In each experiment controls were assayed (sterilized feces, sterilized inhibitors, buffer solutions).

[6] = tested on: bovine pancreatic elastase; experiment: Effect of protease inhibitors on purified enzymes: elastase (azocasein); type: biochemical; conditions: STI, STI-A, -B, -C 0.125% end concentration, enzyme 0.02%; Trasylol undil.; PJ: 1 g PJ powder mixed with 2 ml and with 4 ml buffer
Experimental: (§3) Proteolytic activity was determined in the fecal homogenates in appropriate dilutions (up to 250-fold) in 0.1 M phosphate buffer (pH 7.6). Penicilline (0.1% w/v) was added to prevent bacterial growth. In the more recent inhibition tests no penicillin was used. Samples of 0.1 ml were incubated with 0.1 ml 1% (w/v) azocasein (Sigma) in phosphate buffer at 37° C. during 1 h. The reaction was stopped by addition of 0.2 ml 10% (w/v) trichloroacetic acid (TCA); after 10 min at room temperature unhydrolysed azocasein, bacteria and other particles were removed by centrifugation at 10,000 rpm during 10 min. Then 0.1 ml of the clear supernatant was transferred to 0.1 ml of 1 N NaOH in flatbottom 24 wells microplates. To the blank assays azocasein was added after incubation an addition of TCA. The absorption of the samples was measured at 450 nm and compared with standard curves obtained from solutions of azocasein. Proteolytic activity was expressed as milligrams azocasein hydrolysed during 1 h per gram dry or wet weight of sample. Each diluted sample was tested for other than enzymatic substrate hydrolysis after heating at 80° C. for 10 min. Spontaneous substrate hydrolysis was tested by incubation of the substrate with buffer. […]

[7] = target: T2, bovine pancreatic trypsin; experiment: Effect of protease inhibitors on purified enzymes: trypsin (azocasein); type: biochemical; conditions: for % Inhibition of the proteolytic activity, trypsin: STI, STI-A, -B, -C 0.125% end concentration, enzyme 0.02%, Trasylol undil., PJ: 1 g PJ powder mixed with 2 ml and with 4 ml buffer; for inhibition of trypsin activity: preliminary experiments
Experimental: (§4) Proteolytic activity was determined in the fecal homogenates in appropriate dilutions (up to 250-fold) in 0.1 M phosphate buffer (pH 7.6). Penicilline (0.1% w/v) was added to prevent bacterial growth. In the more recent inhibition tests no penicillin was used. Samples of 0.1 ml were incubated with 0.1 ml 1% (w/v) azocasein (Sigma) in phosphate buffer at 37° C. during 1 h. The reaction was stopped by addition of 0.2 ml 10% (w/v) trichloroacetic acid (TCA); after 10 min at room temperature unhydrolysed azocasein, bacteria and other particles were removed by centrifugation at 10,000 rpm during 10 min. Then 0.1 ml of the clear supernatant was transferred to 0.1 ml of 1 N NaOH in flatbottom 24 wells microplates. To the blank assays azocasein was added after incubation an addition of TCA. The absorption of the samples was measured at 450 nm and compared with standard curves obtained from solutions of azocasein. Proteolytic activity was expressed as milligrams azocasein hydrolysed during 1 h per gram dry or wet weight of sample. Each diluted sample was tested for other than enzymatic substrate hydrolysis after heating at 80° C. for 10 min. Spontaneous substrate hydrolysis was tested by incubation of the substrate with buffer.
as §2
bovine pancreatic trypsin (Serva)
(§5) All enzymes were used in a concentration of 0.2% (w/v) in buffer.
(§6) enzyme concentration was 0.02%, inhibitor concentration (end concentration) was 0.125%.

[8] = target: T4, bovine pancreatic α-chymotrypsin (Bos taurus, UniProt P00766); experiment: Effect of protease inhibitors on purified enzymes: chymotrypsin (azocasein); type: biochemical; conditions: for % Inhibition of the proteolytic activity, chymotrypsin: STI, STI-A, -B, -C 0.125% end concentration, enzyme 0.02%, Trasylol undil., PJ: 1 g PJ powder mixed with 2 ml and with 4 ml buffer; for inhibition of α-chymotrypsin activity: preliminary experiments
T4 construct: purchased Merck, Sigma; host or cells: bovine pancreas
Experimental: as §4, §2
bovine pancreatic α-chymotrypsin (Merck, Sigma)
as §5, §6

[9] = tested on: pronase; experiment: Effect of protease inhibitors on purified enzymes: pronase (azocasein); type: biochemical; conditions: STI-A, -B, -C 0.125% end concentration, enzyme 0.02%; PJ: 1 g PJ powder mixed with 2 ml and with 4 ml buffer
Experimental: as §3

[10] = target: T3, papaine; experiment: Effect of protease inhibitors on purified enzymes: papain (azocasein); type: biochemical; conditions: STI-A, -B, -C 0.125% end concentration, enzyme 0.02%; PJ: 1 g PJ powder mixed with 2 ml and with 4 ml buffer
Experimental: as §3

[11] = tested on: proteolytic activity in feces of CD patients; experiment: Inhibition of proteolytic activity in feces of CD patients (azocasein); type: biochemical, human; conditions: n = 4, inhibitor added to feces 1:2000 diluted, 20 h incubated with substrate
Excerpt: Fecal samples from twenty-seven patients with Crohn's disease (CD) were studied. Twelve patients, aged 27-58 years, had undergone intestinal surgery 3-12 years previously; locations of the resections were terminal ileum, ileum and caecum, and colon. A second group of patients was not operated; the principal sites of inflammation were ileum, ileum and colon, and colon. The diagnosis CD was established with the usual clinical, radiological and histopathological critria. All patients were outpatients.
as §1
Proteolytic activity was determined in the fecal homogenates in appropriate dilutions (up to 250-fold) in 0.1 M phosphate buffer (pH 7.6). Penicilline (0.1% w/v) was added to prevent bacterial growth. In the more recent inhibition tests no penicillin was used. […] The absorption of the samples was measured at 450 nm and compared with standard curves obtained from solutions of azocasein. Proteolytic activity was expressed as milligrams azocasein hydrolysed during 1 h per gram dry or wet weight of sample. […]

[12] = Ileostomy dog, n = 1*, inhibitor added to feces 1:2000 diluted, 20 h incubated with substrate, STI 1%
[13] = dog, n = 3°, inhibitor added to feces diluted 1:100, 2 h incubated, STI 1%

Molecule	% inhibition of the proteolytic activity [5, 12] [%]	% inhibition of the proteolytic activity [5, 13] [%]	% Inhibition of the proteolytic activity, elastase [6] [%]	% Inhibition of the proteolytic activity, trypsin [7] [%]	% Inhibition of the proteolytic activity, chymotrypsin [8] [%]	inhibition of trypsin activity [7]	inhibition of α-chymotrypsin activity [8]	other results
sucralfate	–	–	–	–	–	–	–	peri-stomal and peri-anal irritation caused by feces [1]: reduce
alpha1-proteinase inhibitor: protease inhibitor cited from the literature	–	–	–	–	–	–	–	effect on therapy-resistant atopic dermatitis [2]: wound healing effect
STI: Trypsin inhibitor II-from Soybean (T-9003; Sigma) (protein, UniProt P01070 25-205, looked up) Trypsin inhibitor A: DFVLDNEGNPLENGGTYYILSDITAFGGIRAAPTGNERCPLTVVQSRNELDKGIGTIISSPYRIRFIAEGHPLSLKFDSFAVIMLCVGIPTEWSVVEDLPEGPAVKIGENKDAMDGWFRLERVSDDEFNNYKLVFCPQQAEDDKCGDIGISIDHDDGTRRLVVSKNKPLVVQFQKLDKESL	93	84	15	99	99	–	–	skin reaction ([3]; location 3: fecal supernatant with 0.25% STI (w/v), supernatant alone: moderate redness, papulas, some vesiculas): slight redness that disappeared within 60 min; skin reaction ([3]; location 4: 0.25% STI in buffer): No reaction; effect on lesional elastase activity [4]: inhibitotory effect; % inhibition of the proteolytic activity ([5]; STI 0.25%, dog, n = 3°, feces diluted 1:100, 2 h incubated): 63%; % inhibition of the proteolytic activity ([5]; STI 0.5%, dog, n = 3°, feces diluted 1:100, 2 h incubated): 61%; % inhibition of the proteolytic activity ([5]; STI 0.75%, dog, n = 3°, feces diluted 1:100, 2 h incubated): 45%; inhibition of the proteolytic activity ([5]; STI in a concentration of 1% (w/v)): > 80%
STI-A: STI-type I-S Sigma T 9003 (protein, UniProt P01070 25-205, looked up) Trypsin inhibitor A: DFVLDNEGNPLENGGTYYILSDITAFGGIRAAPTGNERCPLTVVQSRNELDKGIGTIISSPYRIRFIAEGHPLSLKFDSFAVIMLCVGIPTEWSVVEDLPEGPAVKIGENKDAMDGWFRLERVSDDEFNNYKLVFCPQQAEDDKCGDIGISIDHDDGTRRLVVSKNKPLVVQFQKLDKESL	–	–	50	100	80	larger part	larger part	% Inhibition of the proteolytic activity, pronase [9]: 0%; % Inhibition of the proteolytic activity, papain [10]: 0%
ovomucoid: protease inhibitor, 1% (w/v) in 0.1 M phosphate buffer pH 7.6 (protein, UniProt P01005 25-210, looked up) Ovomucoid: AEVDCSRFPNATDKEGKDVLVCNKDLRPICGTDGVTYTNDCLLCAYSIEFGTNISKEHDGECKETVPMNCSSYANTTSEDGKVMVLCNRAFNPVCGTDGVTYDNECLLCAHKVEQGASVDKRHDGGCRKELAAVSVDCSEYPKPDCTAEDRPLCGSDNKTYGNKCNFCNAVVESNGTLTLSHFGKC	93	84	–	–	–	larger part	larger part	% inhibition of the proteolytic activity ([5]; dog, n = 1†, undiluted feces + inhibitor (3 + 1), mixing for 2 h, then diluted 1:100): 52%; % inhibition of the proteolytic activity [11]: 68%
